Results taken from patent US20170119874A1 (INSTITUTE FOR RESEARCH IN BIOMEDICINE, published 2017).

T1: pUL130pUL131 (HEK293T cells transfected with the HCMV genes) (HCMV, UniProt P16772 1-214; F5HET4 19-129)
T1 sequence (looked up) 1: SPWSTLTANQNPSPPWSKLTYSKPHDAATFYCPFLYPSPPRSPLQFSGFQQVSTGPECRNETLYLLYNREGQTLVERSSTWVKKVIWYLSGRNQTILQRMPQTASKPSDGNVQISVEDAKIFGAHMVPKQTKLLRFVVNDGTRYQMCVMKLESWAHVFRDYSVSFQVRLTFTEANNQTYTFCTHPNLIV
T1 sequence (looked up) 2: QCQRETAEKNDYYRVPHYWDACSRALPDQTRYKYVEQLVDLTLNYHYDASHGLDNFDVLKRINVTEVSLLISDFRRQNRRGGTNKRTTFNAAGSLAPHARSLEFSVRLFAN

T2: pUL128pUL130pUL131 (HEK293T cells transfected with the HCMV genes) (HCMV, UniProt P16837 1-171; P16772 1-214; F5HET4 19-129)
T2 sequence (looked up) 1: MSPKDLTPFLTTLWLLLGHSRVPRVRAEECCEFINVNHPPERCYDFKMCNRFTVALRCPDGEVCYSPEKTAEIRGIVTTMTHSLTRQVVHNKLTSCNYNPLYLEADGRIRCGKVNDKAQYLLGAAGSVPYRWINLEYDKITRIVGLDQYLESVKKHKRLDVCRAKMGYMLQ
T2 sequence (looked up) 2: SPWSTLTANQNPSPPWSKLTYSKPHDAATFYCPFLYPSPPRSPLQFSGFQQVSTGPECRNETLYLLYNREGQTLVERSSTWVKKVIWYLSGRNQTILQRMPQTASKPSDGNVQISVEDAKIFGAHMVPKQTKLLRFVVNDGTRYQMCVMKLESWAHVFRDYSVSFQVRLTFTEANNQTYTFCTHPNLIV
T2 sequence (looked up) 3: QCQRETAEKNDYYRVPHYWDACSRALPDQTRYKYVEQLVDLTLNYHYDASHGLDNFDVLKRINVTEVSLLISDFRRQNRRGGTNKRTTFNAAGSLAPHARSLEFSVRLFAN

T3: pUL128 (HEK293T cells transfected with the HCMV gene) (HCMV, UniProt P16837 1-171, limits assumed)
T3 sequence (looked up): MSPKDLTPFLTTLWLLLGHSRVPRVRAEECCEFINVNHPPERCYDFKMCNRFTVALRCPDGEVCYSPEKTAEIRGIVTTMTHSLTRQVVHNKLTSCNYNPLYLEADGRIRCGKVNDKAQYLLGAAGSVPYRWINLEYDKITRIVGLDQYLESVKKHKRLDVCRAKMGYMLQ

T4: gHgLpUL128pUL130 (HEK293T cells transfected with the HCMV genes) (HCMV, UniProt P12824 24-743; P16832 31-278; P16837 1-171; P16772 1-214)
T4 sequence (looked up) 1: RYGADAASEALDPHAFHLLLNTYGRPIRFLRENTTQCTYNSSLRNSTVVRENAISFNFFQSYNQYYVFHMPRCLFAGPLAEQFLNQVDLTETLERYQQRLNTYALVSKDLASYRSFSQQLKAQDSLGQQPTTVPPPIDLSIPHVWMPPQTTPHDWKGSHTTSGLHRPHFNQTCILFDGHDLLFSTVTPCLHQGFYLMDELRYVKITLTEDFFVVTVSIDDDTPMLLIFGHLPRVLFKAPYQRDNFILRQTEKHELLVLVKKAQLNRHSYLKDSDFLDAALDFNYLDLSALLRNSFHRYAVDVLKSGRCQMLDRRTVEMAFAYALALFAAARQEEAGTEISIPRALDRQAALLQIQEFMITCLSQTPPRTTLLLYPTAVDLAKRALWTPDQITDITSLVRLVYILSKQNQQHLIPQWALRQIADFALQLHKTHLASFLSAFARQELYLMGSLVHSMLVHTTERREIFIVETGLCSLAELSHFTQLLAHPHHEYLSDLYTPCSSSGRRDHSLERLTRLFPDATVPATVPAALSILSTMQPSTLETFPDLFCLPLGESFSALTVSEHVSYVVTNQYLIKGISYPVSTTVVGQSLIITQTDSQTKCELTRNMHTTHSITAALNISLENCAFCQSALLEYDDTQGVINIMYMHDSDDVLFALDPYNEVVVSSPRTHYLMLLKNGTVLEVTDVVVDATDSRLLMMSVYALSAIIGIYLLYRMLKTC
T4 sequence (looked up) 2: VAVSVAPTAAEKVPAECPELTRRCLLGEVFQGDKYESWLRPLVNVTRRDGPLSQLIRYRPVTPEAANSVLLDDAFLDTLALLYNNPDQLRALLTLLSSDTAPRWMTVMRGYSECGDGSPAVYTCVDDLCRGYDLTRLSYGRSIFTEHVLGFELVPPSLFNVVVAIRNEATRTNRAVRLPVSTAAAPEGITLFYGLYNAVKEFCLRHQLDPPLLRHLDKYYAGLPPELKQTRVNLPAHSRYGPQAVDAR
T4 sequence (looked up) 3: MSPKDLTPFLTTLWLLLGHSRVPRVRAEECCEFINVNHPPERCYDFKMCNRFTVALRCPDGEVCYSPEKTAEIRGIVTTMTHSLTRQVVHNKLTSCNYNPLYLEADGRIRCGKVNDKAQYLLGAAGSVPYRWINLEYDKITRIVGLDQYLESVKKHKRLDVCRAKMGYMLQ
T4 sequence (looked up) 4: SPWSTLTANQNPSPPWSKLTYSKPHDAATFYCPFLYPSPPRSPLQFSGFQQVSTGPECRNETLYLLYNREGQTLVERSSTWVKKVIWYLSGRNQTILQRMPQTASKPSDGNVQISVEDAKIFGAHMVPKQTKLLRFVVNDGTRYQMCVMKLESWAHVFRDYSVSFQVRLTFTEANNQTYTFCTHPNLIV

B1: human monoclonal antibody 8L13 (antibody, V domains shown)
VH: QVQLLESGGGVVQPGRSLRLSCAASGFTFSNYGMHWVRQAPGKGLEWVAVIWNDGSKKYYAESVKGRFTISRDNSKNTVYLQMNSLRAEDTAVYYCARDEGVQMVFAMPDYGMDVWGQGTTVTVSS
VL: SYELTQPPSVSVSPGQTASITCSGDKLGDKFACWYQQRPGQSPILVIYQDSKRPSGIPERFSGSNSGNTATLTIRGTQAMDEADYYCQAWDSSTAHYVFGTGTKVTVL
B2: human monoclonal antibody 10P3 (antibody, V domains shown)
VH: EVQLVESGGGLVRPGGSLRLSCAASGFTFHNYRMNWVRQAPGKGLEWVANIKQDGSEKSYVDSVRGRFTTSRDNSKNSLYLQINSLRAEDTAVYYCARGEGYTYGVVYSYSAMDVWGQGTTVIVSS
VL: SYELTQPPSVSVSPGQTARITCSGNVLPNQYASWYQQKPGQAPVLVIYKDTERPSGIPGRFSGSSSGTTVTLTISGVQAEDEADYYCQSADSSGADYVFGTGTKVTVL
B3: human monoclonal antibody 7I13 (antibody, V domains shown)
VH: QVQLVESGGGVVQPGRSLRLSCAASGFTFSNYGMHWVRQGPGKGLEWVAVISYDASSKYYTDSVQGRFTISRDNSKNTLFLQMNSLRGEDTAVYYCAKALRYLDWFLSDPFDYWGQGTLVTVSS
VL: EIVLTQSPGTLSLSPGERATLSCRASQSVSSDFLAWYQQKPGQAPRLLIYGASSRATGIPDRFSGSGSGTDFTLTISRLEPEDFAVYYCQQYAASPPFGQGTRLEIK
B4: human monoclonal antibody 15D8 (antibody, V domains shown)
VH: EVQLVQSGAEVKKPGESLKISCQASGYSFTNYWIAWVRQMPGKGLEWMGIIYPGDSDIKYSPSFRGQVTISADKSISNAFLQWRSLRASDTAMYYCARHAIRGDGFDYWGQGTLVTVSS
VL: SYELTQPPSVSVSPGQTATITCSGDKLGEKYACWYQQKPGQSPVLVMYQDTKRPSGIPERFSGSNSGNTATLTISGTRAMDEADYYCQAWDTNTVIFGGGTKLTVL
B5: human monoclonal antibody 8I21 (antibody, V domains shown)
VH: LVELVESGGGVVQPGRSLRLSCAASGFTFSSDGMHWVRQSPGRGLEWVAFISSDGSTPYYADSVKGRFTISRDNSKNTLYLQMNSLRAEDTAMYFCAKDWALFRWLRTFDHWGQGTLVTVSS
VL: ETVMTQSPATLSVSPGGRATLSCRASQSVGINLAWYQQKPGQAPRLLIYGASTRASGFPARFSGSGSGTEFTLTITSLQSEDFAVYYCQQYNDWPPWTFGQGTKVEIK
B6: human monoclonal antibody 8J16 (antibody, V domains shown)
VH: QVQLQESGPGLVKPSETLSLTCSVSGGFTSSYYWSWIRQAPGKGLEWIGYVYYGESTDYNPSLKSRATISIDTSKNQFSLKLSSVTAADTAVYYCAREVDKRGFDYWGQGALVTVSS
VL: EIVLTQSPGTLSLSPGERATLSCRASQSVSGGYLAWYQQEPGQAPRLVIYGASSRATGIPDRFSASGSGTDFTLTITRLEPEDFAVYYCQQYGRTPLTFGGGTKVEIK

Experiments:
Test in all cases: cell-based or functional assay
[1] = biological target: T1, pUL130pUL131 (HEK293T cells transfected …)
[2] = biological target: T2, pUL128pUL130pUL131 (HEK293T cells …)
[3] = biological target: T3, pUL128 (HEK293T cells transfected with …)
[4] = biological target: T4, gHgLpUL128pUL130 (HEK293T cells …)

| Binder | Log IC80, neutralization of HCMV infection of epithelial cells [1] | Log IC80, neutralization of HCMV infection of epithelial cells [2] | further results |
| --- | --- | --- | --- |
| B1 | -11.6 log IC80 (concentration unit not printed) | – | – |
| B2 | -10.5 log IC80 (concentration unit not printed) | – | – |
| B3 | – | -11 log IC80 (concentration unit not printed) | – |
| B4 | – | – | Log IC80, neutralization of HCMV infection of epithelial cells [3]: -11 log IC80 (concentration unit not printed) |
| B5 | – | – | Log IC80, neutralization of HCMV infection of epithelial cells [4]: -9.5 log IC80 (concentration unit not printed) |
| B6 | – | -12.3 log IC80 (concentration unit not printed) | – |
